Experimental data from the supplement of paper PMC10567573.

B1: TRAF3IP2 (parent)
chain: YGHDYPRAAYQQVIQPALPGQPLP

Variants of: B1
Experiment: protein stability index of a GFP-peptide fusion (GPS, HEK-293T) (PSI 1-6); higher = more stable
Conditions: c terminus: a fixed tail appended
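Also: lentivirally expressed fusions sorted by FACS into six bins by GFP to DsRed ratio, PSI derived from sequencing read proportions per bin multiplied by bin number.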

Variant | protein stability index
YGHDYPQAAYQQVIQPALPGQPLP [R7Q] | 2.56
YGHDYPLAAYQQVIQPALPGQPLP [R7L] | 2.27
YGHDYPDAAYQQVIQPALPGQPLP [R7D] | 3.34
YGHDYPGAAYQQVIQPALPGQPLP [R7G] | 2.58
YGHDYPHAAYQQVIQPALPGQPLP [R7H] | 2.36
YGHDYPWAAYQQVIQPALPGQPLP [R7W] | 2.41
YGHDYPMAAYQQVIQPALPGQPLP [R7M] | 2.27
YGHDYPRAANQQVIQPALPGQPLP [Y10N] | 1.85
YGHDYPRAAWQQVIQPALPGQPLP [Y10W] | 1.75
YGHDYPRAASQQVIQPALPGQPLP [Y10S] | 1.75
YGHDYPRAAHQQVIQPALPGQPLP [Y10H] | 2.52
YGHDYPRAAYQQVIQPALPGQHLP [P22H] | 1.71
YGHDYPRAAYQQVIQPALPGQMLP [P22M] | 1.82
YGHDYPRAAYQQVIQPALPGQDLP [P22D] | 1.34
YGHDYPRAAYQQVIQPALPGQRLP [P22R] | 1.79
YGHDYPRAAYQQVIQPALPGQKLP [P22K] | 2.17
YGHDYPRAAYQQVIQPALRGQPLP [P19R] | 1.76
YGHDYPRAAYQQVIQPALHGQPLP [P19H] | 1.65
YGHDYPRAAYQQVIQPALLGQPLP [P19L] | 2.5
YGHDYPRAAYQQVIQPALEGQPLP [P19E] | 2.42
YGHDYPRAAYQQVIQPALCGQPLP [P19C] | 2.24
YGHDYPRAAYQQVIQPALKGQPLP [P19K] | 2.14
YGHDYPRAYYQQVIQPALPGQPLP [A9Y] | 2.02
YGHDYPRAMYQQVIQPALPGQPLP [A9M] | 1.98

Variant | protein stability index
YGHDYPRACYQQVIQPALPGQPLP [A9C] | 2.34
YGHDYPRAIYQQVIQPALPGQPLP [A9I] | 1.52
YGHDYPRADYQQVIQPALPGQPLP [A9D] | 2.74
YGHDYPRANYQQVIQPALPGQPLP [A9N] | 1.73
YGHDYPRASYQQVIQPALPGQPLP [A9S] | 1.71
YGHDYPRAGYQQVIQPALPGQPLP [A9G] | 2.45
YGHDYPRAAYQQSIQPALPGQPLP [V13S] | 2.6
YGHDYPRAAYQQRIQPALPGQPLP [V13R] | 1.93
YGHDYPRAAYQQNIQPALPGQPLP [V13N] | 2.09
YGHDYPRAAYQQDIQPALPGQPLP [V13D] | 2.64
YGHDYPRAAYQQIIQPALPGQPLP [V13I] | 1.98
YGHDYPRAAYQQTIQPALPGQPLP [V13T] | 1.83
YGHDYQRAAYQQVIQPALPGQPLP [P6Q] | 2.27
YGHDYKRAAYQQVIQPALPGQPLP [P6K] | 2.9
YGHDYNRAAYQQVIQPALPGQPLP [P6N] | 2.55
YGHDYVRAAYQQVIQPALPGQPLP [P6V] | 1.56
YGHDYWRAAYQQVIQPALPGQPLP [P6W] | 1.48
YGHDYPRAAYQQVFQPALPGQPLP [I14F] | 2.01
YGHDYPRAAYQQVMQPALPGQPLP [I14M] | 1.49
YGHDYPRAAYQQVKQPALPGQPLP [I14K] | 2.31
YGHDYPRAAYQQVRQPALPGQPLP [I14R] | 1.74
YGHDYPRAAYQQVPQPALPGQPLP [I14P] | 2.14
YGHDYPRAAYQQVCQPALPGQPLP [I14C] | 2.49
YGHDYPRAAYQQVHQPALPGQPLP [I14H] | 1.88

Variant | protein stability index
YGHDYPRAAYQQVSQPALPGQPLP [I14S] | 2.09
YGHDYPRAAYQQVIQPTLPGQPLP [A17T] | 2.62
YGHDYPRAAYQQVIQPNLPGQPLP [A17N] | 1.29
YGHDYPRAAYQQVIQPQLPGQPLP [A17Q] | 1.72
YGHDYPRAAYQQVIQPLLPGQPLP [A17L] | 3.12
YGHDYPRAAYQQVIQPMLPGQPLP [A17M] | 1.95
YGHDYPRAAYQQVIQSALPGQPLP [P16S] | 1.39
YGHDYPRAAYQQVIQCALPGQPLP [P16C] | 2.35
YGHDYPRAAYQQVIQDALPGQPLP [P16D] | 2.22
YGHDYPRAAYQQVIQQALPGQPLP [P16Q] | 2.03
YGHDYPRAAYQQVIQIALPGQPLP [P16I] | 2.79
CGHDYPRAAYQQVIQPALPGQPLP [Y1C] | 2.52
RGHDYPRAAYQQVIQPALPGQPLP [Y1R] | 3.71
AGHDYPRAAYQQVIQPALPGQPLP [Y1A] | 3.77
SGHDYPRAAYQQVIQPALPGQPLP [Y1S] | 3.75
WGHDYPRAAYQQVIQPALPGQPLP [Y1W] | 2.68
NGHDYPRAAYQQVIQPALPGQPLP [Y1N] | 4.21
HGHDYPRAAYQQVIQPALPGQPLP [Y1H] | 4.03
DGHDYPRAAYQQVIQPALPGQPLP [Y1D] | 4.19
IGHDYPRAAYQQVIQPALPGQPLP [Y1I] | 3.52
YGHDYPRDAYQQVIQPALPGQPLP [A8D] | 2.43
YGHDYPRIAYQQVIQPALPGQPLP [A8I] | 2.57
YGHDYPRLAYQQVIQPALPGQPLP [A8L] | 2.7
YGHDYPRKAYQQVIQPALPGQPLP [A8K] | 2.14

Variant | protein stability index
YGHDYPRCAYQQVIQPALPGQPLP [A8C] | 1.94
YGHDYPRMAYQQVIQPALPGQPLP [A8M] | 1.76
YGHDYPRYAYQQVIQPALPGQPLP [A8Y] | 2.24
YGHDYPREAYQQVIQPALPGQPLP [A8E] | 2.03
YGHDYPRAAYQDVIQPALPGQPLP [Q12D] | 1.58
YGHDYPRAAYQWVIQPALPGQPLP [Q12W] | 2.41
YGHDYPRAAYQMVIQPALPGQPLP [Q12M] | 3.06
YGHDYPRAAYQTVIQPALPGQPLP [Q12T] | 1.7
YGHDYPRAAYQEVIQPALPGQPLP [Q12E] | 1.48
YGHDYPRAAYQFVIQPALPGQPLP [Q12F] | 2.56
YAHDYPRAAYQQVIQPALPGQPLP [G2A] | 2.41
YPHDYPRAAYQQVIQPALPGQPLP [G2P] | 3.42
YWHDYPRAAYQQVIQPALPGQPLP [G2W] | 2.03
YKHDYPRAAYQQVIQPALPGQPLP [G2K] | 3.69
YDHDYPRAAYQQVIQPALPGQPLP [G2D] | 3.43
YRHDYPRAAYQQVIQPALPGQPLP [G2R] | 3.52
YQHDYPRAAYQQVIQPALPGQPLP [G2Q] | 2.62
YLHDYPRAAYQQVIQPALPGQPLP [G2L] | 2.6
YGADYPRAAYQQVIQPALPGQPLP [H3A] | 2.05
YGKDYPRAAYQQVIQPALPGQPLP [H3K] | 2.5
YGNDYPRAAYQQVIQPALPGQPLP [H3N] | 1.83
YGCDYPRAAYQQVIQPALPGQPLP [H3C] | 1.86
